Assay results published in patent publication US20260028406A1.

B1: NJT6 nanobody (VHH) (VHH)
VHH: QVQLVETGGDLVQPGGSLRLSCAASGLTLDYYAIGWVRQAPGKEREGVSCITPQDGNTYYDDSVMGRFTILRDNAKNMVYLQMNNLKPEDTAVYFCAAAGALTLDPSEYEYWGQGTQVTVSS
B2: NJT4 nanobody (VHH) (VHH)
VHH: QVQLVESGGGLVQPGGSLRLSCAASGFTFSSYTMRWYRQAPGKERELVAFIGVAGGSTKYADSVKGRFTISRDNTKNTVYLQMNTLKPEDTAVYYCYAPLTPYWGQGTQVTVSS
B3: NJT3 nanobody (VHH) (VHH)
VHH: QVQLVETGGGLAQAGGSLRLSCAASGRTLSGYAMGWFRQAPGKEREFVAAISWSGRNTYYDYTVQGRFTISKDNAKNTVNLQMNSLKPEDTAVYYCAVSRSLDEFGDGYEMDYWGDGTQVTVSS
B4: NJB2 nanobody (VHH) (VHH)
VHH: QVQLVETGGGLVQAGGSLRLSCAASGSTFSHNAGGWYRQAPEKQRELVAGISSDGNINYADSVKDRFTISRDNASNTMYLQMNNLKPEDTAVYVCNIRGSYGNTYYSRWGQGTQVTVSS

How the values were obtained:
[1] = target: purified human tenascin C protein (human) (UniProt P24821); assay: BLI (biolayer interferometry); format not described
[2] = target: purified human tenascin C protein (human) (UniProt P24821); assay: ELISA, plates coated with 3 ug/ml purified human TNC, increasing VHH concentration
[3] = target: EIIIB domain of fibronectin; assay: BLI (biolayer interferometry); format not described
Sequence of EIIIB domain of fibronectin (P02751 1271-1359): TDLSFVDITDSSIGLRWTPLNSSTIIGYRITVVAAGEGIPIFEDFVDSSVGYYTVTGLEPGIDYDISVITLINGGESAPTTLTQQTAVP

Sequence of purified human tenascin C protein (human) (P24821 23-2201): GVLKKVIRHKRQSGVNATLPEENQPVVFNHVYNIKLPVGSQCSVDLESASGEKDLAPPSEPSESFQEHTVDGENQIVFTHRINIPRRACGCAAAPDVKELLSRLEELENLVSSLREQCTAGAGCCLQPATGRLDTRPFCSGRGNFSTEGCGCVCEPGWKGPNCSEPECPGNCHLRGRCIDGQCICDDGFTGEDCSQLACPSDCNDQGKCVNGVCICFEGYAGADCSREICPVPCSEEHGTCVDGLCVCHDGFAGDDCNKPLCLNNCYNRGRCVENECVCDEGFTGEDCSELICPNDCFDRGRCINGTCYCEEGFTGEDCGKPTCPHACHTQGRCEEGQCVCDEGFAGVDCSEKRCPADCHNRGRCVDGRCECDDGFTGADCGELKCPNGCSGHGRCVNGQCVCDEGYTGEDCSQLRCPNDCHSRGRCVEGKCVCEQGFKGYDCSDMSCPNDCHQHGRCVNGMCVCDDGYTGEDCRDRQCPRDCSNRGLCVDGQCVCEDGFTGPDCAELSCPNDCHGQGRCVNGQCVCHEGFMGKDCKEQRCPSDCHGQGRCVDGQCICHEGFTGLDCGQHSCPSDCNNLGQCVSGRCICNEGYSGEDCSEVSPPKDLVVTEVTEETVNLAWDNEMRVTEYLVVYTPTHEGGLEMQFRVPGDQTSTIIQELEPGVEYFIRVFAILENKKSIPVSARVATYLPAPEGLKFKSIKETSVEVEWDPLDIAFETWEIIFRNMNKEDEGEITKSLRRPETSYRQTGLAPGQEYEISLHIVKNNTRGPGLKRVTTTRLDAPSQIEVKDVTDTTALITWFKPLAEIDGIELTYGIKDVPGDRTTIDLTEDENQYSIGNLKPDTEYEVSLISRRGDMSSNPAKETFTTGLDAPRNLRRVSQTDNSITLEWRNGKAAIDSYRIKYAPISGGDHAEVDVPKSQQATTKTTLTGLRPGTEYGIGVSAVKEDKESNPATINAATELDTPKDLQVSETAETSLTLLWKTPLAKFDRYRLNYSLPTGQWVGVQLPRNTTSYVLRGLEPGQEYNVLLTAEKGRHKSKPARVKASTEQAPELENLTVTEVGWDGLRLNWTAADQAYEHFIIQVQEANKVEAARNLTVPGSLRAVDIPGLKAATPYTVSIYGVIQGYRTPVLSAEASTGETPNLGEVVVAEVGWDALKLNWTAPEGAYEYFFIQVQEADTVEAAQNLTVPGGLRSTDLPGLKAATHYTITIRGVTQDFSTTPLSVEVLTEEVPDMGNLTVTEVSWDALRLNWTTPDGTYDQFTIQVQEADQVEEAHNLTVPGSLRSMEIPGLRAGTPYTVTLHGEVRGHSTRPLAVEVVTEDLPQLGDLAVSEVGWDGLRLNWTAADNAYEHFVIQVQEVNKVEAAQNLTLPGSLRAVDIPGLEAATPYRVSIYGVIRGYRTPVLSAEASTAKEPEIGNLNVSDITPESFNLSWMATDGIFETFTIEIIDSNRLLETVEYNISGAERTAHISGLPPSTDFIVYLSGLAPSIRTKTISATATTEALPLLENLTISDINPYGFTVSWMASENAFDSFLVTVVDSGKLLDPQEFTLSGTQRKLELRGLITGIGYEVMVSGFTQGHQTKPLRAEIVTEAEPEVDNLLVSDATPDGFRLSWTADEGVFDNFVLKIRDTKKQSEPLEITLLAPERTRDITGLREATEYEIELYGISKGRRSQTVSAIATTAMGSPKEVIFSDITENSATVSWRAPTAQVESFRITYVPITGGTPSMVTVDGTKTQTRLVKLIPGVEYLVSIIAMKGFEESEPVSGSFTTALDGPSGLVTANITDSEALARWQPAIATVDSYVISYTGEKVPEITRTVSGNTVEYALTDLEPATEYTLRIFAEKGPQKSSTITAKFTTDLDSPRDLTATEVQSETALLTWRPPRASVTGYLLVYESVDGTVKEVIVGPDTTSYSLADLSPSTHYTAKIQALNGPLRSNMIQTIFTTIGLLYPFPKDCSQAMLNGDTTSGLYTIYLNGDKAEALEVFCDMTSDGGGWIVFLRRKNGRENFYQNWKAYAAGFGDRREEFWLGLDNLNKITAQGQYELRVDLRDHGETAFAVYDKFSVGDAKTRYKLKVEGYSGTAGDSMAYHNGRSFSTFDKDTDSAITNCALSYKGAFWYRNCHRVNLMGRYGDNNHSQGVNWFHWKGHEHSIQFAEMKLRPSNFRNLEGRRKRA

Binder	Kd [1] [pM]	EC50 (read off the curve) [2] [ng/mL]	Kd [3] [pM]
B1	< 1	0.01	
B2	< 1		
B3	< 1	0.02	
B4			4000
